{"source": "patent US20060193821", "about": "“Aptamers to the human IL-12 cytokine family and their use as autoimmune disease therapeutics” (published 2006)", "binders": {"B1": {"name": "AMX84-A10 (ssRNA)", "RNA": "GGGAAAAGCGAAUCAUACACAAGAAGUUUUUUGUGCUCUGAGUACUCAGCGUCCGUAAGGGAUAUGCUCCGCCAGAGACCAACCGAGAA", "modifications": "2'-F C and U, 2'-OH A and G"}, "B2": {"name": "AMX84-B10 (ssRNA)", "RNA": "GGGAAAAGCGAAUCAUACACAAGAAGUGCUUCAUGCGGCAAACUGCAUGACGUCGAAUAGAUAUGCUCCGCCAGAGACCAACCGAGAA", "modifications": "2'-F C and U, 2'-OH A and G"}, "B3": {"name": "AMX84-H12 family clone AMX91-H12 (ssRNA)", "RNA": "GGGAAAAGCGAAUCAUACACAAGACGUGUGCUUUAUGUAAACCAUAACGUUCCAUAAGGAAUAUGCUCCGCCAGAGACCAACCGAGAA", "modifications": "2'-F C and U, 2'-OH A and G"}}, "settings_in_all_cases": "tags: R&D Systems", "key": {"[1]": {"target": "T1, IL-23 (human, p19/p40 heterodimer) (Homo sapiens, UniProt Q9NPF7;P29460 SEQ:20-189,SEQ:23-328)", "T1 sequence (Q9NPF7 20-189, chain 1 of 2)": "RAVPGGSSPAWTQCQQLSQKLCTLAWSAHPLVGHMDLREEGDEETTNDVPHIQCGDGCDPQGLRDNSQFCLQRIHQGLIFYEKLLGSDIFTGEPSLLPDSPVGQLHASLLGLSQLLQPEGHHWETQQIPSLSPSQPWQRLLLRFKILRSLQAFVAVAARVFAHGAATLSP", "T1 sequence (P29460 23-328, chain 2 of 2)": "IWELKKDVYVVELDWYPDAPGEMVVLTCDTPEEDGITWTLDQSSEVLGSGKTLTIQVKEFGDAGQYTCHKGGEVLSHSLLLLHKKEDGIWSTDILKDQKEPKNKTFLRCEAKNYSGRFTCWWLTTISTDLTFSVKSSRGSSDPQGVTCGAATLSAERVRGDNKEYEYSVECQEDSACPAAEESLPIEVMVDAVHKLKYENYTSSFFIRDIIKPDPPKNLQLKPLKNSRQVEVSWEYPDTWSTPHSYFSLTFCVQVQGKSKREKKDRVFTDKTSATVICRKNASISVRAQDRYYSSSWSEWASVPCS", "assay": "cell_activity; TransAM STAT3, PHA blasts; Table 35 gives 1 uM for full length", "experimental": "(§1) In summary, the cell-based assay was conducted by isolating the peripheral blood mononuclear cells (PBMCs) from whole blood using a Histopaque gradient (Sigma, St. Louis, Mo.). The PBMCs were cultured for 3 to 5 days at 37° C./5% CO₂ in Peripheral Blood Medium (Sigma) which contains PHA, supplemented with IL-2 (100 units/mL) (R&D Systems, Minneapolis, Minn.), to generate PHA Blasts. To test IL-23 aptamers, the PHA Blasts were washed twice with 1×PBS, then serum starved for four hours in RPMI, 0.20% FBS. After serum starvation, approximately 2 million cells were aliquotted into appropriately labeled eppendorf tubes. hIL-23 at a final constant concentration of 3 ng/mL (R&D Systems, Minneapolis, Minn.) was combined with a dilution series of various IL-23 aptamers as described in Example 1, and the cytokine/aptamer mixture was added to the aliquotted cells in a final volume of 100 μl and incubated at 37° C. for 10-12 minutes. The incubation reaction was stopped by adding 1 mL of ice-cold PBS with 1.5 mM Na₃VO₄. Cell lysates were made using the lysis buffer provided by the TransAM™ STAT 3 assay following the manufacturer's instructions. FIG. 20 depicts a flow summary of the protocol used for the cell based assay.\n(§2) Full length clones from the rRfY selection described in Example 1A, and select minimized rRfY clones that were described in Example 2A. […]"}, "[2]": {"target": "T1, IL-23 (human, p19/p40 heterodimer)", "assay": "cell_activity; TransAM STAT3, PHA blasts; Table 35 gives 700 nM for full length", "experimental": "as §1, §2"}, "[3]": {"target": "T1, IL-23 (human, p19/p40 heterodimer)", "assay": "cell_activity; TransAM STAT3, PHA blasts, 3 ng/mL hIL-23", "experimental": "as §1, §2"}}}
{"binder": "B1", "values": [{"measurement": "IC50", "setting": "[1]", "value": 400, "unit": "nM"}]}
{"binder": "B2", "values": [{"measurement": "IC50", "setting": "[2]", "value": "> 1000", "unit": "nM"}]}
{"binder": "B3", "values": [{"measurement": "IC50", "setting": "[3]", "value": 350, "unit": "nM"}]}
